Assay results from patent US20110166062A1 (INDIANA UNIVERSITY RESEARCH AND TECHNOLOGY, published 2011).
*1 amine or outer side, *2 acyl side, *3 side chain or, on linkers, in order; H or OH if unused. Where no end group is shown, it is not given here. Side-chain parts run from the residue outwards. [ ]: non-standard residue; d: D form. The star is where a group is joined. PEG 40 kDa = PEG (40 kDa) covalently attached to Cys; γGlu = O=C(O)[C@H](CCC(=O)[*:2])N[*:1]; Palmitoyl = CCCCCCCCCCCCCCCC(=O)*; Myristoyl = CCCCCCCCCCCCCC(=O)*; Dab = NCC[C@H](N)C(=O)O; Aib = CC(C)(N)C(=O)O

T1: GIP receptor (UniProt P48546 22-466)
T1 sequence (looked up): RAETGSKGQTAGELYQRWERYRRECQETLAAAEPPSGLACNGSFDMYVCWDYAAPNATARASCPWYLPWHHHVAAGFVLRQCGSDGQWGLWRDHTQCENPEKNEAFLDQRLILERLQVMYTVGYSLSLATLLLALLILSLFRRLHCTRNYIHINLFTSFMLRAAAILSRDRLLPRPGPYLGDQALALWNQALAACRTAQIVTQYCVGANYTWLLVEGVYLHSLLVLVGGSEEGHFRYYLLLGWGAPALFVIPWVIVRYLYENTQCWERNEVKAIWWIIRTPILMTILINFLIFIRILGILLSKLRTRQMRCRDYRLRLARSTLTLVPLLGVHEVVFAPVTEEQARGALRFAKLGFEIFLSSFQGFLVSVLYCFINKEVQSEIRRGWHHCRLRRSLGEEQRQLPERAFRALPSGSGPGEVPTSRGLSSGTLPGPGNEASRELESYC

B1: mt-345 (peptide)
peptide: HXQGTFTSDYSKYLDEQAAKEFICWLMNGGPSSGAPPPSK
modifications: listed among the acylated glucagon peptides in paragraph 284; non-standard residues as in the sequence listing
B2: mt-343 (peptide)
peptide: YXEGTFTSDYSIYLDKQAAXEFVNWLLAGGPSSGAPPPSKC
modifications: AIB at position 20 (Example 25); listed among the acylated glucagon peptides in paragraph 284; other non-standard residues as in the sequence listing
B3: mt-344 (peptide)
peptide: YXEGTFTSDYSIYLDKQAAXEFVNWLLAGGPSSGAPPPSKC
modifications: AIB at position 20 (Example 25); other non-standard residues as in the sequence listing
B4: mt-385 (peptide)
peptide: Y[Aib]QGTFISDK([γGlu-γGlu-Palmitoyl])SIYLDKQAA[Aib]EFVNWLLAGGPSSGAPPPS-NH2
modifications: N-terminus assumed
SMILES: CCCCCCCCCCCCCCCC(=O)N[C@@H](CCC(=O)N[C@@H](CCC(=O)NCCCC[C@H](NC(=O)[C@H](CC(=O)O)NC(=O)[C@H](CO)NC(=O)[C@@H](NC(=O)[C@H](Cc1ccccc1)NC(=O)[C@@H](NC(=O)CNC(=O)[C@H](CCC(N)=O)NC(=O)C(C)(C)NC(=O)[C@@H](N)Cc1ccc(O)cc1)[C@@H](C)O)[C@@H](C)CC)C(=O)N[C@@H](CO)C(=O)N[C@H](C(=O)N[C@@H](Cc1ccc(O)cc1)C(=O)N[C@@H](CC(C)C)C(=O)N[C@@H](CC(=O)O)C(=O)N[C@@H](CCCCN)C(=O)N[C@@H](CCC(N)=O)C(=O)N[C@@H](C)C(=O)N[C@@H](C)C(=O)NC(C)(C)C(=O)N[C@@H](CCC(=O)O)C(=O)N[C@@H](Cc1ccccc1)C(=O)N[C@H](C(=O)N[C@@H](CC(N)=O)C(=O)N[C@@H](Cc1c[nH]c2ccccc12)C(=O)N[C@@H](CC(C)C)C(=O)N[C@@H](CC(C)C)C(=O)N[C@@H](C)C(=O)NCC(=O)NCC(=O)N1CCC[C@H]1C(=O)N[C@@H](CO)C(=O)N[C@@H](CO)C(=O)NCC(=O)N[C@@H](C)C(=O)N1CCC[C@H]1C(=O)N1CCC[C@H]1C(=O)N1CCC[C@H]1C(=O)N[C@@H](CO)C(N)=O)C(C)C)[C@@H](C)CC)C(=O)O)C(=O)O
B5: HSDab(Ac)…ibRRAADFVAWLLDTGPSSGAPPPS amide (peptide)
peptide: HS[Dab](Ac)GTFTSDYSKYLD[Aib]RRAADFVAWLLDTGPSSGAPPPS-NH2
modifications: N-terminus assumed
SMILES: CC(=O)NCC[C@H](NC(=O)[C@H](CO)NC(=O)[C@@H](N)Cc1c[nH]cn1)C(=O)NCC(=O)N[C@H](C(=O)N[C@@H](Cc1ccccc1)C(=O)N[C@H](C(=O)N[C@@H](CO)C(=O)N[C@@H](CC(=O)O)C(=O)N[C@@H](Cc1ccc(O)cc1)C(=O)N[C@@H](CO)C(=O)N[C@@H](CCCCN)C(=O)N[C@@H](Cc1ccc(O)cc1)C(=O)N[C@@H](CC(C)C)C(=O)N[C@@H](CC(=O)O)C(=O)NC(C)(C)C(=O)N[C@@H](CCCNC(=N)N)C(=O)N[C@@H](CCCNC(=N)N)C(=O)N[C@@H](C)C(=O)N[C@@H](C)C(=O)N[C@@H](CC(=O)O)C(=O)N[C@@H](Cc1ccccc1)C(=O)N[C@H](C(=O)N[C@@H](C)C(=O)N[C@@H](Cc1c[nH]c2ccccc12)C(=O)N[C@@H](CC(C)C)C(=O)N[C@@H](CC(C)C)C(=O)N[C@@H](CC(=O)O)C(=O)N[C@H](C(=O)NCC(=O)N1CCC[C@H]1C(=O)N[C@@H](CO)C(=O)N[C@@H](CO)C(=O)NCC(=O)N[C@@H](C)C(=O)N1CCC[C@H]1C(=O)N1CCC[C@H]1C(=O)N1CCC[C@H]1C(=O)N[C@@H](CO)C(N)=O)[C@@H](C)O)C(C)C)[C@@H](C)O)[C@@H](C)O
B6: mt-384 (peptide)
peptide: Y[Aib]QGTFTSDK([γGlu-γGlu-Palmitoyl])SIYLDKQAA[Aib]EFVNWLLAGGPSSGAPPPS-NH2
modifications: N-terminus assumed
SMILES: CCCCCCCCCCCCCCCC(=O)N[C@@H](CCC(=O)N[C@@H](CCC(=O)NCCCC[C@H](NC(=O)[C@H](CC(=O)O)NC(=O)[C@H](CO)NC(=O)[C@@H](NC(=O)[C@H](Cc1ccccc1)NC(=O)[C@@H](NC(=O)CNC(=O)[C@H](CCC(N)=O)NC(=O)C(C)(C)NC(=O)[C@@H](N)Cc1ccc(O)cc1)[C@@H](C)O)[C@@H](C)O)C(=O)N[C@@H](CO)C(=O)N[C@H](C(=O)N[C@@H](Cc1ccc(O)cc1)C(=O)N[C@@H](CC(C)C)C(=O)N[C@@H](CC(=O)O)C(=O)N[C@@H](CCCCN)C(=O)N[C@@H](CCC(N)=O)C(=O)N[C@@H](C)C(=O)N[C@@H](C)C(=O)NC(C)(C)C(=O)N[C@@H](CCC(=O)O)C(=O)N[C@@H](Cc1ccccc1)C(=O)N[C@H](C(=O)N[C@@H](CC(N)=O)C(=O)N[C@@H](Cc1c[nH]c2ccccc12)C(=O)N[C@@H](CC(C)C)C(=O)N[C@@H](CC(C)C)C(=O)N[C@@H](C)C(=O)NCC(=O)NCC(=O)N1CCC[C@H]1C(=O)N[C@@H](CO)C(=O)N[C@@H](CO)C(=O)NCC(=O)N[C@@H](C)C(=O)N1CCC[C@H]1C(=O)N1CCC[C@H]1C(=O)N1CCC[C@H]1C(=O)N[C@@H](CO)C(N)=O)C(C)C)[C@@H](C)CC)C(=O)O)C(=O)O

What was measured:
Assay in all cases: cell-based or functional assay
glucagon receptor [1] = target: T2, glucagon receptor (UniProt P47871 26-477, limits assumed)
T2 sequence (P47871 26-477 limits assumed): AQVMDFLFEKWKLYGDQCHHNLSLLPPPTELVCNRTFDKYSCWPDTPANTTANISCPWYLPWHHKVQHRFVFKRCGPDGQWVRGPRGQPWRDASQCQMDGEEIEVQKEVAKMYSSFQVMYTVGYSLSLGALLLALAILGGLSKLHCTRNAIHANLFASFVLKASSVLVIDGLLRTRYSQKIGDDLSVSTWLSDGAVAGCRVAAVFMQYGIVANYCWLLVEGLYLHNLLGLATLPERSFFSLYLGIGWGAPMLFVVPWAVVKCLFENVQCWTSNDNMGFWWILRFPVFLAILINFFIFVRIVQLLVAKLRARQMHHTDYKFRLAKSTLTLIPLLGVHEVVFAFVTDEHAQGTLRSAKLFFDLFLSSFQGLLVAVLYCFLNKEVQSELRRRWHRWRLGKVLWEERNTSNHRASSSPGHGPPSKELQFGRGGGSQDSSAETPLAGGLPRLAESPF

GLP-1 receptor [2] = target: T3, GLP-1 receptor (UniProt P43220 24-463, limits assumed)
GIP receptor [3] = target: T1, GIP receptor
glucagon receptor [4] = target: T2, glucagon receptor; remark: listed apart in the source
glucagon receptor [5] = target: T2, glucagon receptor; remark: listed apart in the source
GLP-1 receptor [6] = target: T3, GLP-1 receptor; remark: listed apart in the source
GIP receptor [7] = target: T1, GIP receptor; remark: listed apart in the source

Binder | relative activity; Glucagon Receptor (glucagon receptor [1]) [%] | relative activity; GLP-1 Receptor (GLP-1 receptor [2]) [%] | relative activity; GIP Receptor (GIP receptor [3]) [%] | EC50, nM; Glucagon Receptor (glucagon receptor [1]) [nM] | EC50, nM; GLP-1 Receptor (GLP-1 receptor [2]) [nM] | EC50, nM; GIP Receptor (GIP receptor [3]) [nM] | % activity* (glucagon receptor [4]) [%] | EC50 (nM) at Glucagon Receptor (glucagon receptor [4]) [nM] | % Relative activity at the Receptor for Glucagon (glucagon receptor [5]) [%] | % Relative activity at the Receptor for GLP-1 (GLP-1 receptor [6]) [%] | % Relative activity at the Receptor for GIP (GIP receptor [7]) [%]
B1 | 193 | 153 | 4.99 | – | – | – | – | – | – | – | –
B2 | 0.07 | 41.5 | 63.8 | 41.1 | 0.0224 | 0.0243 | – | – | – | – | –
B3 | 0.02 | 10.4 | 48.6 | 159 | 0.089 | 0.0319 | – | – | – | – | –
HS[Dab](Ac)GTFTSDYSKYLD[Aib]RRASDFVSWLLDE [HSDab(Ac)…ibRRASDFVSWLLDE] | – | – | – | – | – | – | 54 | 0.048 | – | – | –
Y[Aib]EGTFTSDK(Myristoyl)SIYLDKQAA[Aib]EFVC(PEG 40 kDa)WLLAGGPSSGAPPPS-NH2 [mt-341] | 0.01 | 14.6 | 27.4 | 499 | 0.0636 | 0.0566 | – | – | – | – | –
B4 | – | – | – | – | – | – | – | – | 239 | 3.18 | 715
B5 | – | – | – | – | – | – | 113 | 0.023 | – | – | –
Y[Aib]EGTFTSDYSIYLDKQAA[Aib]EFVC(PEG 40 kDa)WLLAGGPSSGAPPPSK(Myristoyl)-NH2 [mt-353] | 0.17 | 129 | 103 | 12.5 | 0.0049 | 0.0035 | – | – | – | – | –
HS[Dab](Ac)GTFTSDYSKYLD[Aib]RRATDFVTWLLDE [HSDab(Ac)…ibRRATDFVTWLLDE] | – | – | – | – | – | – | 46 | 0.057 | – | – | –
B6 | – | – | – | – | – | – | – | – | 228 | 349 | 808
